According to article PMC13466322, “Immunoglobulin Superfamily Protein BTNL9 Functions as a Non-Canonical Transcriptional Regulator to Suppress NSCLC Through Cell Cycle and p53 Pathways” (International Journal of Molecular Sciences, 2026):

Biological target: the molecule itself
Assay: native gel or EMSA; lysates of A549 and NCI-H460 cells in RIPA buffer; non-reducing LDS sample buffer; NativePAGE Bis-Tris 3-12% gel, run 1.5 h; Western blot; interpreted qualitatively

B1: Butyrophilin-like 9 (BTNL9), wild type, FLAG-tagged or AM-tagged (natural protein, human, UniProt Q6UXG8-1 35-535, looked up)
chain: SSEVKVLGPEYPILALVGEEVEFPCHLWPQLDAQQMEIRWFRSQTFNVVHLYQEQQELPGRQMPAFRNRTKLVKDDIAYGSVVLQLHSIIPSDKGTYGCRFHSDNFSGEALWELEVAGLGSDPHLSLEGFKEGGIQLRLRSSGWYPKPKVQWRDHQGQCLPPEFEAIVWDAQDLFSLETSVVVRAGALSNVSVSIQNLLLSQKKELVVQIADVFVPGASAWKSAFVATLPLLLVLAALALGVLRKQRRSREKLRKQAEKRQEKLTAELEKLQTELDWRRAEGQAEWRAAQKYAVDVTLDPASAHPSLEVSEDGKSVSSRGAPPGPAPGHPQRFSEQTCALSLERFSAGRHYWEVHVGRRSRWFLGACLAAVPRAGPARLSPAAGYWVLGLWNGCEYFVLAPHRVALTLRVPPRRLGVFLDYEAGELSFFNVSDGSHIFTFHDTFSGALCAYFRPRAHDGGEHPDPLTICPLPVRGTGVPEENDSDTWLQPYEPADPALDWW
notes: bZIP domain annotated at residues 281-317; Two differently tagged copies of the same wild-type protein (FLAG copy as bait, AM-tag copy as prey) are written as one molecule; Each copy carries only one of the two tags; also called WT; BTNL9-FLAG; source: A549 and NCI-H460 cells, lentiviral infection, in lysate
  stoichiometry N: 2
